The values below are quoted from earlier work in PMC2939181.

One may read the Kd as a measure of binding affinity in units of concentration.

This data set has as its target CPT-1 (UniProt P50416). Briefly: FRET.
Sequence of UniProt P50416 (P50416 2-773): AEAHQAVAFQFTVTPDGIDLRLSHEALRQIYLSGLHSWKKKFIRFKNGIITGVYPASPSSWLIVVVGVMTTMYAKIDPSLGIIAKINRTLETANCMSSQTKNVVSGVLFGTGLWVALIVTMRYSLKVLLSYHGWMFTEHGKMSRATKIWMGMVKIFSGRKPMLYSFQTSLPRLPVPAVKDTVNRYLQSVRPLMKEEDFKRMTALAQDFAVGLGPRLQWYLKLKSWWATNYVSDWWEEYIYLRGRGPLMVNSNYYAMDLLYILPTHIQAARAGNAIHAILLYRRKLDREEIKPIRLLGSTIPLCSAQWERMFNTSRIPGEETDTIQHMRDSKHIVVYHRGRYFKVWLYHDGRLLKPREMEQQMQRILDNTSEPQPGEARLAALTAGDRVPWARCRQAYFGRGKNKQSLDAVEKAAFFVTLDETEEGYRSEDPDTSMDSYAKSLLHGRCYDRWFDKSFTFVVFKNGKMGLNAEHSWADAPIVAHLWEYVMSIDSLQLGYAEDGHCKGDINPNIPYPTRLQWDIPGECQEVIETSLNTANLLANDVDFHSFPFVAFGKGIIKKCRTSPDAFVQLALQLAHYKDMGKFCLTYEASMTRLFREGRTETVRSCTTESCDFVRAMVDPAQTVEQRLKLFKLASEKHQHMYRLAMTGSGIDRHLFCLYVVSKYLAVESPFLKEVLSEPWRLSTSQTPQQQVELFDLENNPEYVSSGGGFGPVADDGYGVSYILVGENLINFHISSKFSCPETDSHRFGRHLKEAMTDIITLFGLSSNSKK

For L-FABP (from UniProt P07148), the Kd is 2.1 nM.
